Read-outs that look alike come from different tables or passages of the source. One block for each binder: values may come before it.
What was measured:
Experiment in all cases: cell-based or functional assay
[1] = molecular target: T1, cynomolgus monkey IL-33 (cys mut) (cynomolgus monkey)
T1 chain: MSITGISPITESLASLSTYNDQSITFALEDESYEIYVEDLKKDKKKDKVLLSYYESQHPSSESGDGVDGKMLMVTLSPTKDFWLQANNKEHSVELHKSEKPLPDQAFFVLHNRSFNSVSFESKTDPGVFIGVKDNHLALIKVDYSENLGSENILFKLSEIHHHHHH

[2] = molecular target: T2, human IL-33 WT (R&D) (human, UniProt O95760 112-270)
T2 sequence: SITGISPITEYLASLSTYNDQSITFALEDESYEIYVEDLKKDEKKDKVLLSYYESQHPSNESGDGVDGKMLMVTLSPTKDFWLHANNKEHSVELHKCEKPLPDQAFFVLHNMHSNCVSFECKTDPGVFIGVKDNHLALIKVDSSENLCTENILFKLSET

[3] = molecular target: T3, human IL-33 (mm2) (human, UniProt O95760 112-270)
T3 chain: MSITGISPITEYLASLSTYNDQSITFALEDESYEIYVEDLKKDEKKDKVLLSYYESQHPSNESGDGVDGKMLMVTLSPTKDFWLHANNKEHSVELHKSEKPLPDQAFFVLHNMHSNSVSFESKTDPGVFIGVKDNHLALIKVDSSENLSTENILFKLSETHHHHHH

[4] = molecular target: T4, wild-type cynomolgus monkey IL-33 (cynomolgus monkey)
T4 chain: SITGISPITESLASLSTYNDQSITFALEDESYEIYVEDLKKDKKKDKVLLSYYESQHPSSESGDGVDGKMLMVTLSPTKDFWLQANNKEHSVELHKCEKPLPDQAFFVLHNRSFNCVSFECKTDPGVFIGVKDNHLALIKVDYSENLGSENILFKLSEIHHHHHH

[5] = molecular target: T1, cynomolgus monkey IL-33 (cys mut)
[6] = molecular target: T2, human IL-33 WT (R&D); remark: listed apart in the source
[7] = molecular target: T3, human IL-33 (mm2)
[8] = molecular target: T4, wild-type cynomolgus monkey IL-33
[9] = molecular target: T1, cynomolgus monkey IL-33 (cys mut)
[10] = molecular target: T3, human IL-33 (mm2)
[11] = molecular target: T2, human IL-33 WT (R&D); remark: listed apart in the source
[12] = molecular target: T3, human IL-33 (mm2)
[13] = molecular target: T3, human IL-33 (mm2)
[14] = molecular target: T3, human IL-33 (mm2)
[15] = molecular target: T1, cynomolgus monkey IL-33 (cys mut)
[16] = molecular target: T5, native human IL-33 from human lung fibroblast (HFL-1) lysate (human, UniProt O95760 1-270, limits assumed)
T5 sequence (looked up): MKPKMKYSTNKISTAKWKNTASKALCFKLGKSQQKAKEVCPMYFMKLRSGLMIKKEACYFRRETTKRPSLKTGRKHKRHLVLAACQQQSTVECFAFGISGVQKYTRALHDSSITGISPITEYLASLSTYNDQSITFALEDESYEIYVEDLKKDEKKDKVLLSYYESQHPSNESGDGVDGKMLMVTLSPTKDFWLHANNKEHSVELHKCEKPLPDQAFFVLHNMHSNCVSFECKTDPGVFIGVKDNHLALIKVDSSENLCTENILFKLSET

[17] = molecular target: T1, cynomolgus monkey IL-33 (cys mut)
[18] = molecular target: T3, human IL-33 (mm2)

Cynomolgus monkey:human IC50 ratio: cysteine mutant IL-33 [1]: 1.1
IC50, HEK293 ST2 NFkB [1]: 0.003 nM
IC50, HEK293 ST2 NFkB [2]: 0.008 nM
IC50, HEK293 ST2 NFkB [3]: 0.003 nM
Cynomolgus monkey:human IC50 ratio: wild-type IL-33 [4]: 5.4
IC50, HEK293 ST2 NFkB [4]: 0.043 nM
B1: IL33-312 (antibody, human IgG1, lambda, V domains shown)
VH: EVQLLESGGGLVQPGGSLRLSCAASGFTFSSYAMSWVRQAPGKGLEWVSGISAIDQSTYYADSVKGRFTISRDNSKNTLYLQMNSLRAEDTAVYYCARQKFMQLWGGGLRYPFGYWGQGTMVTVSS
VL: SYVLTQPPSVSVSPGQTASITCSGEGMGDKYAAWYQQKPGQSPVLVIYRDTKRPSGIPERFSGSNSGNTATLTISGTQAMDEADYYCGVIQDNTGVFGGGTKLTVLG

Cynomolgus monkey:human IC50 ratio: cysteine mutant IL-33 [1]: 206
IC50, HEK293 ST2 NFkB [1]: 1.2 nM
IC50, HEK293 ST2 NFkB [2]: 0.027 nM
IC50, HEK293 ST2 NFkB [3]: 0.006 nM
Cynomolgus monkey:human IC50 ratio: wild-type IL-33 [4]: 528
IC50, HEK293 ST2 NFkB [4]: 14.1 nM
B2: IL33-313 (antibody, human IgG1, lambda, V domains shown)
VH: EVQLLESGGGLVQPGGSLRLSCAASGFTFSSYAMSWVRQAPGKGLEWVSGIADDFTSTYYADPVKGRFTISRDNSKNTLYLQMNSLRAEDTAVYYCARDLWMMNYAGGLRYPFGYWGQGTMVTVSS
VL: SYVLTQPPSVSVSPGQTASITCSGERMGDKYAAWYQQKPGQSPVLVIYRDTKRPSGIPERFSGSNSGNTATLTISGTQAMDEADYYCGVLKQDTGVFGGGTKLTVLG

Cynomolgus monkey:human IC50 ratio: cysteine mutant IL-33 [5]: 32.5
IC50, HEK293 ST2 NFkB [5]: 0.59 nM
IC50, HEK293 ST2 NFkB (DTT-pretreated IL-33) [6]: 0.061 nM
IC50, HEK293 ST2 NFkB [7]: 0.018 nM
Cynomolgus monkey:human IC50 ratio: wild-type IL-33 [8]: 27.1
IC50, HEK293 ST2 NFkB (DTT-pretreated IL-33) [8]: 1.64 nM
Cynomolgus monkey:human IC50 ratio: cysteine mutant IL-33 [1]: 29.2
IC50, HEK293 ST2 NFkB [1]: 0.213 nM
IC50, HEK293 ST2 NFkB [2]: 0.021 nM
IC50, HEK293 ST2 NFkB [3]: 0.007 nM
Cynomolgus monkey:human IC50 ratio: wild-type IL-33 [4]: 104
IC50, HEK293 ST2 NFkB [4]: 2.19 nM
B3: IL33-310 (antibody, human IgG4 S228P, kappa, V domains shown)
VH: EVQLVESGGGLVQPGGSLRLSCAASGFTFSSFSMSWVRQAPGKGLEWVATISGGKTFTDYVDSVKGRFTISRDDSKNTLYLQMNSLRAEDTAVYYCTRANYGNWFFEVWGQGTLVTVSS
VL: EIVLTQSPATLSLSPGERATLSCRASESVAKYGLSLLNWFQQKPGQPPRLLIFAASNRGSGIPARFSGSGSGTDFTLTISSLEPEDFAVYYCQQSKEVPFTFGQGTKVEIKR

IC50, HEK293 ST2 NFkB [9]: 0.19 nM
IC50, HEK293 ST2 NFkB [10]: 0.084 nM
B4: IL33-55 (antibody, human IgG1, kappa, V domains shown)
VH: EVQLVESGGGLVQPGGSLRLSCAASGFTFSSYWMYWVRQAPGKGLEWVASITPNGGDTYYPDSVKGRFTISRDNAKNSLYLQMNSLRAEDTAVYYCARGHYYYTSYSLGYWGQGTLVTVSS
VL: DIQMTQSPSSLSASVGDRVTITCKASQNINKHLDWYQQKPGKAPKLLIYFTNNLQTGVPSRFSGSGSGTDFTLTISSLQPEDFATYYCFQYNNGWTFGGGTKVEIKR

IC50, HEK293 ST2 NFkB WT IL-33 [11]: 0.037 nM
IC50, whole blood IFNγ [12]: 0.098 nM
B5: IL33-136 (antibody, human IgG1, kappa, V domains shown)
VH: EVQLVESGGGLVQPGGSLRLSCAASGFTFSSYWMYWVRQAPGKGLEWVASITPNGGETYYPDSVKGRFTISRDNAKNSLYLQMNSLRAEDTAVYYCARGHYYYTSYSLGYWGQGTLVTVSS
VL: DIQMTQSPSSLSASVGDRVTITCKASQNINKHLDWYQQKPGKAPKLLIYFTNNLQTGVPSRFSGSGSGTDFTLTISSLQPEDFATYYCFQYNQGWTFGGGTKVEIKR

IC50, HEK293 ST2 NFkB [9]: 0.062 nM
IC50, HEK293 ST2 NFkB [10]: 0.046 nM
B6: IL33-68 (antibody, human IgG1, kappa, V domains shown)
VH: EVQLVESGGGLVQPGGSLRLSCAASGFTFSSYWMYWVRQAPGKGLEWVASITPNGGNTYYPDSVKGRFTISRDNAKNSLYLQMNSLRAEDTAVYYCARGHYYYTAYSLGYWGQGTLVTVSS
VL: DIQMTQSPSSLSASVGDRVTITCKASQNINKHLDWYQQKPGKAPKLLIYFTNNLQTGVPSRFSGSGSGTDFTLTISSLQPEDFATYYCFQYNNGWTFGGGTKVEIKR

IC50, HEK293 ST2 NFkB [9]: 0.104 nM
IC50, HEK293 ST2 NFkB [10]: 0.053 nM
B7: IL33-56 (antibody, human IgG1, kappa, V domains shown)
VH: EVQLVESGGGLVQPGGSLRLSCAASGFTFSSYWMYWVRQAPGKGLEWVASITPNGGETYYPDSVKGRFTISRDNAKNSLYLQMNSLRAEDTAVYYCARGHYYYTSYSLGYWGQGTLVTVSS
VL: DIQMTQSPSSLSASVGDRVTITCKASQNINKHLDWYQQKPGKAPKLLIYFTNNLQTGVPSRFSGSGSGTDFTLTISSLQPEDFATYYCFQYNNGWTFGGGTKVEIKR

IC50, HEK293 ST2 NFkB [13]: 0.018 nM
IC50, HEK293 ST2 NFkB [14]: 0.024 nM
IC50, HEK293 ST2 NFkB [15]: 0.21 nM
% inhibition 0.1 nM Ab, HEK293 ST2 NFkB [16]: 112%
% inhibition 1 nM Ab, HEK293 ST2 NFkB [16]: 110%
% inhibition 10 nM Ab, HEK293 ST2 NFkB [16]: 113%
IC50, HEK293 ST2 NFkB [17]: 0.032 nM
IC50, HEK293 ST2 NFkB [18]: 0.043 nM
B8: rat 7E8 (7E8 hybridoma) (antibody, V domains shown)
VH: EVQLVETGGGLVQPGRSLKLSCKTSGFTFSSYWMYWIRQAPGKGLEWVSSITPNGGNTYYPDSVKGRFTISRDNAENTIYLQMSSLRSEDTATYFCAKGHYYYTSYSLGYWGQGSLVTVSS
VL: EIQMTQSPSVLSASVGDRVTLSCKASQNINKHLDWYQQKLGEAPKLLIYFTNNLQTGIPSRFSGSGSGTDCTLTINSLQPGDVATYFCFQYNNGWTFGGGTKLELD

IC50, HEK293 ST2 NFkB [13]: 0.665 nM
IC50, HEK293 ST2 NFkB [15]: 2.95 nM
% inhibition 0.1 nM Ab, HEK293 ST2 NFkB [16]: 35.4%
% inhibition 1 nM Ab, HEK293 ST2 NFkB [16]: 77.3%
% inhibition 10 nM Ab, HEK293 ST2 NFkB [16]: 108%
IC50, HEK293 ST2 NFkB [17]: 0.14 nM
IC50, HEK293 ST2 NFkB [18]: 0.47 nM
B9: rat 30A1 (30A1 hybridoma) (antibody, V domains shown)
VH: QVNLLQSGATLVKPGASMKMSCKASGYSFTDYWVSWVKQSHGKSLEWIGEIYPNSGANNFNKEFKDKATLTVDKSTSTAYMELTRLTSEDSAVYYCTRGPYYYSSQIIFAYWGQGTLVTVSS
VL: IIVMTQSPKSMSISVGDRVTMNCKASQNVGNNIAWYRQKPGQSPELLIYYASNRYTGVPDRFTGGGYGTDFTLTINSVQAEDAAFYYCQRIYNSPPTFGGGTKVELK

IC50, HEK293 ST2 NFkB [13]: 0.056 nM
IC50, HEK293 ST2 NFkB [15]: 0.2 nM
% inhibition 0.1 nM Ab, HEK293 ST2 NFkB [16]: 93.5%
% inhibition 1 nM Ab, HEK293 ST2 NFkB [16]: 108%
% inhibition 10 nM Ab, HEK293 ST2 NFkB [16]: 113%
IC50, HEK293 ST2 NFkB [17]: 0.084 nM
IC50, HEK293 ST2 NFkB [18]: 0.038 nM
B10: rat 30B11 (30B11 hybridoma) (antibody, V domains shown)
VH: QVKLLQSGAALVKPGASVKMSCATSGFSFTDYWVSWVKQSHGKGLEWIGEIYPNSGADNFNENFKGKATLTVDKSTSTAYMELSRLTSEDSAIYYCTRGPYYYSTQIIFAYWGQGTLVTVSS
VL: NIVMTQSPKSMSISVGDRVTMNCKASQNVGNNLAWYQQKPGQSPKLLIYYASNRYTGVPDRFTGGGYGTDFTLTINSVQAEDAAFYYCQRIYNSPPTFGGGTKVELR

Cynomolgus monkey:human IC50 ratio: cysteine mutant IL-33 [5]: 109
IC50, HEK293 ST2 NFkB [5]: 1.56 nM
IC50, HEK293 ST2 NFkB (DTT-pretreated IL-33) [6]: 0.05 nM
IC50, HEK293 ST2 NFkB [7]: 0.014 nM
Cynomolgus monkey:human IC50 ratio: wild-type IL-33 [8]: 256
IC50, HEK293 ST2 NFkB (DTT-pretreated IL-33) [8]: 12.7 nM
B11: IL33-265 (antibody, human IgG1, kappa, V domains shown)
VH: EVQLVESGGNLEQPGGSLRLSCTASGFTFSRSAMNWVRRAPGKGLEWVSGISGSGGRTYYADSVKGRFTISRDNSKNTLYLQMNSLSAEDTAAYYCAKDSYTTSWYGGMDVWGHGTTVTVSS
VL: DIQMTQSPSSVSASVGDRVTITCRASQGIFSWLAWYQQKPGKAPKLLIYAASSLQSGVPSRFSGSGSGTDFTLTISSLQPEDFAIYYCQQANSVPITFGQGTRLEIKR

Source: patent US20180037644A1 (Pfizer, published 2018)
